Values quoted from earlier work in PMC10518620.

Molecular target: C3aR (Homo sapiens) (UniProt Q16581)
UniProt Q16581, sequence (Q16581 whole entry): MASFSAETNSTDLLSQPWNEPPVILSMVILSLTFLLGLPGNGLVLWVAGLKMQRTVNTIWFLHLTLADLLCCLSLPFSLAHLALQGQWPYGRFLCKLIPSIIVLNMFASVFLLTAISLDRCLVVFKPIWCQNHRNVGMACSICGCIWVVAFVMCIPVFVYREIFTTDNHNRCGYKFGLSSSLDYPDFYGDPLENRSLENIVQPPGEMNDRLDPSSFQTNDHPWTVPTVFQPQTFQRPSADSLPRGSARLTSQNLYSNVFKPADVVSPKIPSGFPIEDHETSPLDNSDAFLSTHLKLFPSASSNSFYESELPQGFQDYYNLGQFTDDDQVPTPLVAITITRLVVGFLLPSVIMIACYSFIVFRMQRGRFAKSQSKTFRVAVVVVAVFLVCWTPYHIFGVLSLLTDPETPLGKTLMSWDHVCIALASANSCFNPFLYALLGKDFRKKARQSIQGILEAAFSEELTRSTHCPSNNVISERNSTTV

Kd: 1 nM
Substance: C3a C3a (from UniProt P01024)
